Assay results as given in patent publication US20260184782A1 (TWIST BIOSCIENCE, published 2026).

B1: TIGIT-SC97 (Fc fusion)
VHH: EVQLVESGGGLVQPGGSLRLSCAASGTAASFNPMGWFRQAPGKEREFVAAISWSGGSTNYADSVKGRFTISADNSKNTAYLQMNSLKPEDTAVYYCVTYSAYDFRNAWGQGTLVTVSS
notes: VHH-Fc
B2: TIGIT-SC41 (Fc fusion)
VHH: EVQLVESGGGLVQPGGSLRLSCAASGMTTIGPMGWFRQAPGKEREFVASIAWGDGNTYYADSVKGRFTISADNSKNTAYLQMNSLKPEDTAVYYCVRGGSRTLWGQGTLVTVSS
notes: VHH-Fc
B3: TIGIT-SC63 (Fc fusion)
VHH: EVQLVESGGGLVQPGGSLRLSCAASGRAIGSYGMGWFRQAPGKEREFVATISVSGVYTYYADSVKGRFTISADNSKNTAYLQMNSLKPEDTAVYYCARATPGGVVPWGQGTLVTVSS
notes: VHH-Fc
B4: TIGIT-SC24 (Fc fusion)
VHH: EVQLVESGGGLVQPGGSLRLSCAASGFTFDRSWMGWFRQAPGKEREVVASITSGGSTYYADSVKGRFTISADNSKNTAYLQMNSLKPEDTAVYYCAADVWYGSTWRNWGQGTLVTVSS
notes: VHH-Fc
B5: TIGIT-471-035 (antibody, V domains shown)
VH: EVQLLESGGGLVQPGGSLRLSCAASGFTFNAYPMTWVRQAPGKGLEWVSAITGSGGSTYYADSVKGRFTISRDNSKNTLYLQMNSLRAEDTAVYYCARVWRNHLDYWGQGTLVTVSS
VL: DIQMTQSPSSLSASVGDRVTITCSGDKLGHTYTSWYQQKPGKAPKLLIYRASTLASGVPSRFSGSGSGTDFTLTISSLQPEDFATYYCQQGYTLPWTFGQGTKVEIK
notes: Variable domains only
B6: TIGIT-471-011 (antibody, V domains shown)
VH: EVQLLESGGGLVQPGGSLRLSCAASGFTFSNYGVSWVRQAPGKGLEWVSSIDWHGWVTYYADSVKGRFTISRDNSKNTLYLQMNSLRAEDTAVYYCVKNALRFDYWGQGTLVTVSS
VL: DIQMTQSPSSLSASVGDRVTITCSASQDINKYLNWYQQKPGKAPKLLIYHTSRLQSGVPSRFSGSGSGTDFTLTISSLQPEDFATYYCQQVVWRPFTFGQGTKVEIK
notes: Variable domains only
B7: TIGIT-471-027 (antibody, V domains shown)
VH: EVQLLESGGGLVQPGGSLRLSCAASGFTFSNYGVSWVRQAPGKGLEWVSWISPHGALTYYADSVKGRFTISRDNSKNTLYLQMNSLKAEDTAVYYCAKGRRRFDYWGQGTLVTVSS
VL: DIQMTQSPSSLSASVGDRVTITCRASQTISSYLNWYQQKPGKAPKLLIYENNNRPSGVPSRFSGSGSGTDFTLTISSLQPEDFATYYCQQSYIIPPTFGQGTNVEIK
notes: Variable domains only
B8: Tiragolumab (antibody, V domains shown)
VH: EVQLQQSGPGLVKPSQTLSLTCAISGDSVSSNSAAWNWIRQSPSRGLEWLGKTYYRFKWYSDYAVSVKGRITINPDTSKNQFSLQLNSVTPEDTAVFYCTRESTTYDLLAGPFDYWGQGTLVTVSS
VL: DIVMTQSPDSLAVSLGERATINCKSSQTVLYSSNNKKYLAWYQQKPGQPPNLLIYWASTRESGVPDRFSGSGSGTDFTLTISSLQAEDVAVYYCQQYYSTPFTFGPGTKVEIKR
B9: TIGIT-SC58 (Fc fusion)
VHH: EVQLVESGGGLVQPGGSLRLSCAASGFTLGYYVMGWFRQAPGKEREFVATINWSGTLTSYADSVKGRFTISADNSKNTAYLQMNSLKPEDTAVYYCARWVGPKYYFDYWGQGTLVTVSS
notes: VHH-Fc
B10: TIGIT-29-01 VHH-Fc (Fc fusion)
chain: EVQLVESGGGLVQAGGSLRLSCAASGRTFSNYAMGWFRQAPGKEREFVAAITWSGTRTDYADSVKGRFTISADNAKNTVYLQMNSLKPEDTAVYYCAAAAWTIYEYDYWGQGTQVTVSSGGGGSEPKSSDKTHTCPPCPAPELLGGPSVFLFPPKPKDTLMISRTPEVTCVVVDVSHEDPEVKFNWYVDGVEVHNAKTKPREEQYNSTYRVVSVLTVLHQDWLNGKEYKCKVSNKALPAPIEKTISKAKGQPREPQVYTLPPSREEMTKNQVSLTCLVKGFYPSDIAVEWESNGQPENNYKTTPPVLDSDGSFFLYSLTVDKSRWQQGNVFSCSVMHEALHNHYTQKSLSLSPG
notes: also called 29-1
B11: TIGIT-29-01 (Fc fusion)
chain: EVQLVESGGGLVQAGGSLRLSCAASGRTFSNYAMGWFRQAPGKEREFVAAITWSGTRTDYADSVKGRFTISADNAKNTVYLQMNSLKPEDTAVYYCAAAAWTIYEYDYWGQGTQVTVSSGGGGSEPKSSDKTHTCPPCPAPELLGGPSVFLFPPKPKDTLMISRTPEVTCVVVDVSHEDPEVKFNWYVDGVEVHNAKTKPREEQYNSTYRVVSVLTVLHQDWLNGKEYKCKVSNKALPAPIEKTISKAKGQPREPQVYTLPPSREEMTKNQVSLTCLVKGFYPSDIAVEWESNGQPENNYKTTPPVLDSDGSFFLYSLTVDKSRWQQGNVFSCSVMHEALHNHYTQKSLSLSPG
notes: VHH-Fc; also called 29-1
B12: TIGIT-471-019 (antibody, V domains shown)
VH: EVQLLESGGGLVQPGGSLRLSCAASGFTFSNYGVSWVRQAHGKGLEWVVYINPSRGYTYYADSVKGRFSISRDNSKNTLYLQMNSLRAEDTAVYYCARSYGGGFDYWGQGTLVTVSS
VL: DIQMTQSPSSLSASVGDRVTITCRASQTIERRLNWYQQKPGKAPKLLIYDASSLHTGVPSRFSGSGSGTDFTLTISSLQPEDFATYYCQQSYIIPPTFGQGTKVEIK
notes: Variable domains only
B13: TIGIT-471-038 (antibody, V domains shown)
VH: EVQLLESGGGLVQPGGSLRLSCAASGFTFSNYGVSWVRQAPGKGLEWVGYINPSRGYTYYADSVKGRFTISRDNSKNTLYLQMNSLRAEDTAVYYCARSYGGGFDYWGQGTLVTVSS
VL: DIQMTQSPSSLSASVGDRVTITCRASQTIERRLNWYQQKPGKAPKLLIYDASSLHTGVSSRFSGSGSGTYFTLTISSLQAEDFATYYCQQSYIIPPTFGQGTKVEIK
notes: Variable domains only
B14: TIGIT-471-048 (antibody, V domains shown)
VH: EVQLLESGGGLVQPGGSLRLSCAASGFTFSNYGVSWVRQAPGKGLEWVGYINPSRGYTYYADSVKGRFTISRDNSKNTLYLQMNSLRAEDTAVYYCARSYGGGFDYWGQGTLVTVSS
VL: DIQMTQSPSSLSASVGDRVTITCGASQTIERRLNWYQQKPGKAPKLLIYDASSLHTGVPSRISGSGSGTDFTLTISSLQPEHFATYYCQQSYIIPPTFGQGTKVEIK
notes: Variable domains only

Key:
human TIGIT-Fc [1] = molecular target: T1, human TIGIT-Fc (human, UniProt Q495A1 22-141, limits assumed); test: CD155 competition ELISA, single point
T1 construct: not shown: Fc; not described
T1 sequence (looked up): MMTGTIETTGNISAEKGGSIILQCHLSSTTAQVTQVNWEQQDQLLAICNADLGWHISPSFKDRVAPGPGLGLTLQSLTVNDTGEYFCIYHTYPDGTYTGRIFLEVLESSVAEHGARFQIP
Experimental: (§1) TIGIT/CD155 inhibition of VHH-Fcs were assessed using an ELISA assay (Table 10B). Briefly, human TIGIT-Fc was coated on a plate & then incubated with VHH-Fcs and human CD155-biotin. Bound CD155-biotin was detected using a streptavidin-HRP conjugate visualized with TMB. Strong inhibitors from the single point screen were titrated to determine EC50 (Table 10C).

TIGIT on PBMCs = molecular target: T2, TIGIT on PBMCs (UniProt Q495A1 22-244, limits assumed); test: cell-based or functional assay
T2 sequence (looked up): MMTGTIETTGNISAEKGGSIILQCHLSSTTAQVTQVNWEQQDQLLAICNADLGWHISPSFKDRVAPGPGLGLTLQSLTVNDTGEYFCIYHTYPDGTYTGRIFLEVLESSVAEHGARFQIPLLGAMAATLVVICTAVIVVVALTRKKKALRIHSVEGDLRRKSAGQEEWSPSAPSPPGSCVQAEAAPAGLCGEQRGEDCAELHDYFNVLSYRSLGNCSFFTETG

human TIGIT-Fc [2] = molecular target: T1, human TIGIT-Fc; test: CD155 competition ELISA, titration
Experimental: as §1

TIGIT [3] = molecular target: T3, TIGIT (UniProt Q495A1 22-141, limits assumed); test: SPR (Carterra)
T3 construct: also called T cell immunoreceptor with Ig and ITIM domains; hTIGIT
T3 sequence (looked up): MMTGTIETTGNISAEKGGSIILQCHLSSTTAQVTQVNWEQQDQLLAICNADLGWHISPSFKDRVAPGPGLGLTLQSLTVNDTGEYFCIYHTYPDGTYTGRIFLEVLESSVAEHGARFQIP

TIGIT [4] = molecular target: T3, TIGIT; test: TIGIT:CD155 blockade assay, competitor CD155
TIGIT [5] = molecular target: T4, TIGIT (UniProt Q495A1 22-141, limits assumed); test: Carterra SPR, VHH-Fc
T4 construct: construct not described; also called T cell immunoreceptor with Ig and ITIM domains
T4 sequence (looked up): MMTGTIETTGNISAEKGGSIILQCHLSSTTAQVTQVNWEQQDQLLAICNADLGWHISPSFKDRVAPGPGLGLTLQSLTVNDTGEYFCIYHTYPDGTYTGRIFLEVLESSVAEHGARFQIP

[6] = molecular target: T5, TIGIT (T cell immunoreceptor with Ig and ITIM domains) (UniProt Q495A1 22-141, limits assumed); test: SPR (Carterra), VHH-Fc
T5 sequence (looked up): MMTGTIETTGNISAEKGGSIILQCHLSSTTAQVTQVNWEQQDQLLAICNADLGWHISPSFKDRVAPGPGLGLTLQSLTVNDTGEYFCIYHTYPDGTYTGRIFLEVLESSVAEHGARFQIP
Description: The Carterra SPR system was used to assess binding affinity and affinity distribution for VHH-Fc variants. […] Table 5A provides specific values for the VHH-Fc clones for ELISA, Protein A (mg/ml), and KD (nM). FIG. 7A and FIG. 7B depict TIGIT affinity distribution for the VHH libraries, over the 20-4000 affinity threshold (FIG. 7A; monovalent KD) and the 20-1000 affinity threshold (FIG. 7B; monovalent KD).

[7] = molecular target: T5, TIGIT (T cell immunoreceptor with Ig …); test: ELISA, VHH-Fc clone on TIGIT

Binder	OD (450 nm) (human TIGIT-Fc [1])	T-cell activation EC50 (TIGIT on PBMCs)	EC50 (human TIGIT-Fc [2])	Kd (TIGIT [3])	RU (TIGIT [3])	koff (TIGIT [3])	kon (TIGIT [3])	IC50 (TIGIT [4])	further results
B1	0.111 OD	7.11 nM	0.971 nM	–	–	–	–	–	–
B2	0.0921 OD	1.83 nM	10 nM	–	–	–	–	–	–
B3	0.0781 OD	88.1 nM	135 nM	–	–	–	–	–	–
B4	0.0781 OD	7.53 nM	0.423 nM	–	–	–	–	–	–
B5	–	–	–	395 nM	93.7 RU	0.0484 s⁻¹	123000 M⁻¹ s⁻¹	3.2 nM	–
B6	–	–	–	7290 nM	1080 RU	0.269 s⁻¹	36900 M⁻¹ s⁻¹	14.4 nM	–
B7	–	–	–	60 nM	57.5 RU	0.00926 s⁻¹	154000 M⁻¹ s⁻¹	13.5 nM	–
B8	0.0858 OD	13.5 nM	0.57 nM	–	–	–	–	–	–
B9	0.0846 OD	2.08 nM	0.303 nM	–	–	–	–	–	–
B10	–	–	–	–	–	–	–	–	Kd (TIGIT [5]): 68 nM; kon (TIGIT [5]): 1e+09 M⁻¹ s⁻¹
B11	–	–	–	–	–	–	–	–	Kd [6]: 68 nM; ELISA [7]: 10.4
B12	–	–	–	164 nM	156 RU	0.0565 s⁻¹	344000 M⁻¹ s⁻¹	13.6 nM	–
B13	–	–	–	55.4 nM	78 RU	0.0122 s⁻¹	221000 M⁻¹ s⁻¹	5.9 nM	–
B14	–	–	–	51.4 nM	122 RU	0.0192 s⁻¹	373000 M⁻¹ s⁻¹	9.8 nM	–
